Data as given in patent publication EP4793287A1, “TUMOR MICROENVIRONMENT SPECIFICALLY ACTIVATED CD47 ANTIBODY” (Affinity (Shanghai) Biopharmaceutical Co., Ltd., priority 2023, dated 2025).

Tests used:
CHOK1-CD47 cells = molecular target: T1, CHOK1-CD47 cells (Homo sapiens, UniProt Q08722); assay: FACS binding of CD47 antibodies to CHOK1-CD47 cells; details: Example 4.3
T1 construct: expressed in transfected cells; host or cells: CHO-K1 (CHOK1-CD47, puromycin selection)
Protocol: The desired overexpressing cell line, CHOK1-CD47 (cultured in RPMI-1640 (ATCC Modification, Gibco, Cat# A10491-01) + 10% FBS (BI, Cat# 04-001-1A) + 1× P/S + 6 µg/ml Puromycin (Gibco, Cat# a1113803, 10 × 1 ml (10 mg/ml))), was expanded to the logarithmic phase. Cells were digested, collected, and pipetted to create a single-cell suspension, followed by centrifugation and removal of the supernatant. The cells were resuspended in FACS buffer (PBS + 2% FBS) and counted, and the cell density was adjusted to 2×10^6/ml. 100 µl/well of this suspension was added to a 96-well plate (Corning, Cat# 3799). […] After three washes with FACS buffer by centrifugation, the cells were resuspended in 200 µl/well of FACS buffer and analyzed using FACS (BECKMAN COULTER, CytoFLEX). Data were fitted and the results were analyzed using software (GraphPad Prism 8).
The desired overexpressing cell line, CHOK1-CD47 (cultured in RPMI-1640 (ATCC Modification, Gibco, Cat# A10491-01) + 10% FBSThe (BI, Cat# 04-001-1A) + 1× P/S + 6 µg/ml Puromycin (Gibco, Cat# A1113803, 10 × 1 ml (10 mg/ml))), was expanded to the logarithmic phase. […] After three washes with FACS buffer by centrifugation, the cells were resuspended in 200 µl/well of FACS buffer and analyzed using FACS (BECKMAN COULTER, CytoFLEX). Data were fitted and the results were analyzed using software (GraphPad Prism 8).

[1] = system: Human red blood cells (RBCs); assay: FACS binding to red blood cells
Protocol: Human red blood cells (RBCs) (XFB-RBC, 10 ml) were centrifuged, and the supernatant was discarded. The cells were resuspended in FACS buffer (PBS + 2% FBS) and counted, and the cell density was adjusted to 2×10^6/ml. 100 µl/well of this suspension was added to a 96-well plate. After centrifugation and removal of the supernatant, the antibody to be tested (initial concentration of 100 nM, 5-fold gradient dilutions, 8 dilution points) was added at 100 µl/well, mixed with the cells, and incubated at 4 °C for 1 hour. Cells were washed by centrifugation with FACS buffer for three times, then added with 100 µl/well of Goat anti-Human IgG Fc Secondary Antibody, PE (eBioscience™, Invitrogen, Cat# 12-4998-82, 1:200 dilution) and incubated at 4 °C for 1 hour. After three washes with FACS buffer by centrifugation, the cells were resuspended in 200 µl/well of FACS buffer and analyzed using FACS (BECKMAN COULTER, CytoFLEX). Data were fitted and the results were analyzed using software (GraphPad Prism 8).

[2] = In vivo hematological toxicity, blood cell counting; design: species or system hSIRPA/hCD47 (C57 background) mice; details: for PLT Count Mean / RBC Count Mean: 5mg/kg single intraperitoneal dose
Protocol: hSIRPA/hCD47 (C57 background) mice were randomly divided into 4 groups based on body weight, with 3 mice per group. The hematological toxicity of 70H1.IgG1.Y61C+20K and 70H1.IgG1.Y61C+40K was studied via intraperitoneal injection.
The experimental groups were divided as follows: • 70H1.IgG1.Y61C+20K (5 mg/kg) group, • 70H1.IgG1.Y61C+40K (10 mg/kg) group, • 70H1.IgG1.Y61C+40K (20 mg/kg) group, • 70H1.IgG1.Y61C+40K (30 mg/kg) group.
After grouping, a single dose of the corresponding antibody was administered intraperitoneally to the mice. Blood cell counting was performed on the mice at D0 (pre-dose), D2, D5, D7, D9, and D12.

T1 sequence (Q08722 19-323): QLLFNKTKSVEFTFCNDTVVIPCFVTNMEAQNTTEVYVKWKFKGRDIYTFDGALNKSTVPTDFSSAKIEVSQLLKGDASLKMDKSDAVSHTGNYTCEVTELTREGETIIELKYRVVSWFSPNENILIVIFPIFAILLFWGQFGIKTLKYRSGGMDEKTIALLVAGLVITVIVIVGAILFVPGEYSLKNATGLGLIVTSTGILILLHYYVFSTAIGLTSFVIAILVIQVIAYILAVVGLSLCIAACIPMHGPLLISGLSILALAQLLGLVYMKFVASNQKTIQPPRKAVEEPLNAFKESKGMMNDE

B1: CD47 TMEAbody: CD47 TMEAbody conjugated with PEG of approximately 20K molecular weight (i.e., PEG20K) (conjugate)
VH: QQQLEESGGGLVKPEGSLTLTCTASGFSFSSGYDMCWVRQAPGRGLEWIACIYTRSSGGTCYASWAKGRFTISKTSSTVDLRMTSLTAADTATYFCAGGRSSYRLNLWGQGALVTVSS
VL: DVVMTQTPSPVEAAVGGTVTIKCQASQSISNELSWYQQKPGQPPKLLIYRASTLESGVSSRFKGSGSGTEFTLTISDLECADAATYYCQSTFYGDYGNAFGGGTEVVVK
binding to cells lower compared to 70H1 (CHOK1-CD47 cells): approximately 20 fold | binding to red blood cells [1]: essentially no binding to red blood cells | PLT Count Mean ([2]; D0 (pre-dose)): 1668.33 10^9/L | RBC Count Mean ([2]; D0 (pre-dose)): 8.53 10^12/L | PLT Count Mean ([2]; D2): 1406.33 10^9/L | RBC Count Mean ([2]; D2): 6.56 10^12/L | PLT Count Mean ([2]; D5): 1142.33 10^9/L | RBC Count Mean ([2]; D5): 7.48 10^12/L | PLT Count Mean ([2]; D7): 1435.33 10^9/L | RBC Count Mean ([2]; D7): 9.62 10^12/L | PLT Count Mean ([2]; D9): 1356.00 10^9/L | RBC Count Mean ([2]; D9): 9.55 10^12/L | PLT Count Mean ([2]; D12): 1351.00 10^9/L | RBC Count Mean ([2]; D12): 9.45 10^12/L | change in red blood cells ([2]; 5 mg/kg, D2 post-administration): reversible decrease in red blood cells | change in platelets ([2]; 5 mg/kg, D5 post-administration): reversible decrease in platelets
